What all share (test): cell-based or functional assay
One assay concerns the target CAP256 wk34c80 (HIV-1).
Assay [1] has as its target T1, HIV-1 Env of strain WITO.33 (Env-pseudotyped virus) (HIV-1).
The target of assay [2] is T1, HIV-1 Env of strain WITO.33 …. The source holds these as a separate data set.
Assay [3] concerns the target HIV-1 Env of strain SC422.8 (Env-pseudotyped virus) (HIV-1).

Results on three molecules are retold here after US20250197482A1 (UNITED STATES OF AMERICA AS REPRESENTED BY THE SECRETARY …, published 2025).

B1: CAP256V2LS-10E8-3 (bispecific antibody)
heavy chain: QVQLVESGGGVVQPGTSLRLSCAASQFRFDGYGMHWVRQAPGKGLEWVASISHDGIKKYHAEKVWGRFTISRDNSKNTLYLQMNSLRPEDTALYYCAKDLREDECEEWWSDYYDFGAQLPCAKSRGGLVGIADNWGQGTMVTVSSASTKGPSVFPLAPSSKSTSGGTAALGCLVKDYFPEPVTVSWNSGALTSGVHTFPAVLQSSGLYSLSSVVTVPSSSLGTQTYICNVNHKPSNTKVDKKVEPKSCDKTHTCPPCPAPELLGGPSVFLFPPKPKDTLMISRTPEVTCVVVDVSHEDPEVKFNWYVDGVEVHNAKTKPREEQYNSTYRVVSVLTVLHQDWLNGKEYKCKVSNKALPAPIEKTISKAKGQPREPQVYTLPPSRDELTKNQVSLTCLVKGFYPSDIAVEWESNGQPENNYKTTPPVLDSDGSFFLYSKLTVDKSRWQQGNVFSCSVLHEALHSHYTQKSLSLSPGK
light chain (10E8v4 scFv, linker, CAP256V2LS LC): EVRLVESGGGLVKPGGSLRLSCSASGFDFDNAWMTWVRQPPGKGLEWVGRITGPGEGWSVDYAESVKGRFTISRDNTKNTLYLEMNNVRTEDTGYYFCARTGKYYDFWSGYPPGEEYFQDWGQGTLVIVSSGGGGSGGGGSGGGGSSELTQDPAVSVALKQTVTITCRGDSLRSHYASWYQKKPGQAPVLLFYGKNNRPSGIPDRFSGSASGNRASLTITGAQAEDEADYYCSSRDKSGSRLSVFGGGTKLTVGGSGGGGSGGGGSGGQSVLTQPPSVSAAPGQKVTISCSGNTSNIGNNFVSWYQQRPGRAPQLLIYETDKRPSGIPDRFSASKSGTSGTLAITGLQTGDEADYYCATWAASLSSARVFGTGTQVIVLGQPKVNPTVTLFPPSSEELQANKATLVCLISDFYPGAVTVAWKADSSPVKAGVETTTPSKQSNNKYAASSYLSLTPEQWKSHRSYSCQVTHEGSTVEKTVAPTECS
As for B1, the “% neutralization, single point, Env-pseudotyped virus on TZM-bl” value (shortened to “% neutralization, single point”) with CAP256 wk34c80 stood at 99%; in assay [1], 21%.

B2: CAP256V2LS-J3-3 (bispecific antibody)
heavy: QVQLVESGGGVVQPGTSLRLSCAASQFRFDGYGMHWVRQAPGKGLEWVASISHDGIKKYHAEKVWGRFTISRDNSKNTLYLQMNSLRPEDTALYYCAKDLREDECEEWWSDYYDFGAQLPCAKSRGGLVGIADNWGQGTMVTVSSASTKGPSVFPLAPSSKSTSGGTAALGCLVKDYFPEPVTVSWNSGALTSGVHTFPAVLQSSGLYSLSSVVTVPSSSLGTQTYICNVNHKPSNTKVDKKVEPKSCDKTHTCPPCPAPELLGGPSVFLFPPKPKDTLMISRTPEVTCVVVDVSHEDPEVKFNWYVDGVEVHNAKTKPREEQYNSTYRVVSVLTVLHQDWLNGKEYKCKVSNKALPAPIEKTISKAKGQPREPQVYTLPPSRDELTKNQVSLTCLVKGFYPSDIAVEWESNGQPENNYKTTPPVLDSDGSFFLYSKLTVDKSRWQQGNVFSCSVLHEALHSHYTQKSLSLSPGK
light: EVQLVESGGGLVQAGGFLRLSCELRGSIFNQYAMAWFRQAPGKEREFVAGMGAVPHYGEFVKGRFTISRDNAKSTVYLQMSSLKPEDTAIYFCARSKSTYISYNSNGYDYWGRGTQVTVSSGGSGGGGSGGGGSGGQSVLTQPPSVSAAPGQKVTISCSGNTSNIGNNFVSWYQQRPGRAPQLLIYETDKRPSGIPDRFSASKSGTSGTLAITGLQTGDEADYYCATWAASLSSARVFGTGTQVIVLGQPKVNPTVTLFPPSSEELQANKATLVCLISDFYPGAVTVAWKADSSPVKAGVETTTPSKQSNNKYAASSYLSLTPEQWKSHRSYSCQVTHEGSTVEKTVAPTECS
Take B2: the “neutralization potency, fold better than that of J3” value was ~10 fold in assay [2] and 3 fold in assay [3]. For the same molecule, the “% neutralization, single point” value in the assay with CAP256 wk34c80 amounted to 100%; in assay [1] it was 89%.

B3: CAP256V2LS-J3-2 (bispecific antibody)
heavy: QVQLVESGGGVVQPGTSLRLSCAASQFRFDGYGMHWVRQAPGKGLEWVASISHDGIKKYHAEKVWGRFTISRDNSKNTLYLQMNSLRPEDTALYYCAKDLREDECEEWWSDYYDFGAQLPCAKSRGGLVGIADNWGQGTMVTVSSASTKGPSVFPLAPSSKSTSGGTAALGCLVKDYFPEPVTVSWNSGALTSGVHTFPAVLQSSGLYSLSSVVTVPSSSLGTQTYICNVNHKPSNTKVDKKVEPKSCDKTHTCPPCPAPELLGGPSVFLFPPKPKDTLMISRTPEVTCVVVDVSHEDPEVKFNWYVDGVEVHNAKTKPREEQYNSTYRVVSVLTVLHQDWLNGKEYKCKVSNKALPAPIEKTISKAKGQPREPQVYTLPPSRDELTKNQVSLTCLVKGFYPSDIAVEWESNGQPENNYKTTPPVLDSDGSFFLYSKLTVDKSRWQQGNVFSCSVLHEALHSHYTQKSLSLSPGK
light: EVQLVESGGGLVQAGGFLRLSCELRGSIFNQYAMAWFRQAPGKEREFVAGMGAVPHYGEFVKGRFTISRDNAKSTVYLQMSSLKPEDTAIYFCARSKSTYISYNSNGYDYWGRGTQVTVSSGGSGGGGSGGQSVLTQPPSVSAAPGQKVTISCSGNTSNIGNNFVSWYQQRPGRAPQLLIYETDKRPSGIPDRFSASKSGTSGTLAITGLQTGDEADYYCATWAASLSSARVFGTGTQVIVLGQPKVNPTVTLFPPSSEELQANKATLVCLISDFYPGAVTVAWKADSSPVKAGVETTTPSKQSNNKYAASSYLSLTPEQWKSHRSYSCQVTHEGSTVEKTVAPTECS
For B3, the “neutralization potency, fold better than that of J3” value in assay [2] is ~10 fold; in assay [3] it was 3 fold. For the same molecule, the “% neutralization, single point” value (in the assay with CAP256 wk34c80; in assay [1]) was 100% in each case.
